B1: TRIM43 (parent)
chain: RAQMIRNEYRKLHPVLHKEEKQHL

Variants of: B1
Assay: protein stability index of a GFP-peptide fusion (GPS, HEK-293T) (PSI 1-6); higher = more stable
Conditions: c terminus: a fixed tail appended
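Note: lentivirally expressed fusions sorted by FACS into six bins by GFP to DsRed ratio, PSI derived from sequencing read proportions per bin multiplied by bin number.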

Going from RAQMIRNEYRKLHIVLHKEEKQHL [P14I] to RAQMIRNEYRKLHHVLHKEEKQHL [P14H], the protein stability index falls from 2.44 to 2.28.

First: RAQMIRNEYRKLHFVLHKEEKQHL [P14F]
Second: RAQMIRNEYRKLHAVLHKEEKQHL [P14A]
The protein stability index of the first is higher: 2.95 for the first, 2.53 for the second.

Compared with RAQMIRNEYRKLHEVLHKEEKQHL [P14E], RAQMIRNEYRKLHCVLHKEEKQHL [P14C] is lower in protein stability index: 3.28 for the first, 2.42 for the second.

Compared with RAQIIRNEYRKLHPVLHKEEKQHL [M4I], RAQQIRNEYRKLHPVLHKEEKQHL [M4Q] is higher in protein stability index: 2.6 for the first, 2.8 for the second.

Compared with RAQLIRNEYRKLHPVLHKEEKQHL [M4L], RAQVIRNEYRKLHPVLHKEEKQHL [M4V] is higher in protein stability index: 3.2 for the first, 3.39 for the second.

Compared with RAQRIRNEYRKLHPVLHKEEKQHL [M4R], RAQSIRNEYRKLHPVLHKEEKQHL [M4S] is lower in protein stability index: 3.11 for the first, 3.07 for the second.

Compared with RAQPIRNEYRKLHPVLHKEEKQHL [M4P], RAQTIRNEYRKLHPVLHKEEKQHL [M4T] is lower in protein stability index: 3.73 for the first, 3.69 for the second.

First: RAQKIRNEYRKLHPVLHKEEKQHL [M4K]
Second: RAQYIRNEYRKLHPVLHKEEKQHL [M4Y]
The protein stability index of the first is higher: 3.2 for the first, 2.74 for the second.

First: RAQNIRNEYRKLHPVLHKEEKQHL [M4N]
Second: RAQWIRNEYRKLHPVLHKEEKQHL [M4W]
The protein stability index of the first is higher: 3.45 for the first, 2.44 for the second.

Compared with RAQMIRNEYRKLIPVLHKEEKQHL [H13I], RAQMIRNEYRKLEPVLHKEEKQHL [H13E] is higher in protein stability index: 2.92 for the first, 4.06 for the second.

Going from RAQMIRNEYRKLCPVLHKEEKQHL [H13C] to RAQMIRNEYRKLSPVLHKEEKQHL [H13S], the protein stability index rises from 3 to 3.4.

Going from RAQMIRNEYRKLPPVLHKEEKQHL [H13P] to RAQMIRNEYRKLGPVLHKEEKQHL [H13G], the protein stability index rises from 3.19 to 3.2.

Compared with RAQMIRNEYRKLQPVLHKEEKQHL [H13Q], RAQMIRNEYRKLWPVLHKEEKQHL [H13W] is lower in protein stability index: 3.56 for the first, 2.61 for the second.

Going from RAQMIRNEYRKLRPVLHKEEKQHL [H13R] to RAQMIRNEYRKLAPVLHKEEKQHL [H13A], the protein stability index rises from 2.69 to 3.46.

Going from RAQMIRNEYRKLNPVLHKEEKQHL [H13N] to RAQMIRNEYRKLFPVLHKEEKQHL [H13F], the protein stability index falls from 3.35 to 2.82.

Compared with RAQMIRNEYRKLMPVLHKEEKQHL [H13M], RAQMIRNEYRKLKPVLHKEEKQHL [H13K] is higher in protein stability index: 2.94 for the first, 3.55 for the second.

First: RAQMIRNEYRKLYPVLHKEEKQHL [H13Y]
Second: RAQMIRNEYRKLDPVLHKEEKQHL [H13D]
The protein stability index of the first is lower: 2.83 for the first, 3.75 for the second.

Going from RAQMIRNEYRKLVPVLHKEEKQHL [H13V] to RAQMIRNEYRKLTPVLHKEEKQHL [H13T], the protein stability index falls from 3.11 to 3.1.

First: RAQMIRNEYRKLLPVLHKEEKQHL [H13L]
Second: RAQMIENEYRKLHPVLHKEEKQHL [R6E]
The protein stability index of the first is lower: 3.28 for the first, 3.48 for the second.

Going from RAQMIYNEYRKLHPVLHKEEKQHL [R6Y] to RAQMILNEYRKLHPVLHKEEKQHL [R6L], the protein stability index falls from 2.57 to 2.15.

Going from RAQMIPNEYRKLHPVLHKEEKQHL [R6P] to RAQMIMNEYRKLHPVLHKEEKQHL [R6M], the protein stability index falls from 3.57 to 2.19.

Going from RAQMIHNEYRKLHPVLHKEEKQHL [R6H] to RAQMIQNEYRKLHPVLHKEEKQHL [R6Q], the protein stability index rises from 3.54 to 3.63.

Compared with RAQMITNEYRKLHPVLHKEEKQHL [R6T], RAQMINNEYRKLHPVLHKEEKQHL [R6N] is higher in protein stability index: 3.89 for the first, 4.15 for the second.

First: RAQMICNEYRKLHPVLHKEEKQHL [R6C]
Second: RAQMIKNEYRKLHPVLHKEEKQHL [R6K]
The protein stability index of the first is higher: 3.67 for the first, 3.39 for the second.

Compared with RAQMIFNEYRKLHPVLHKEEKQHL [R6F], RAQMISNEYRKLHPVLHKEEKQHL [R6S] is higher in protein stability index: 2.44 for the first, 3.52 for the second.

Compared with RAQMIVNEYRKLHPVLHKEEKQHL [R6V], RAQMIDNEYRKLHPVLHKEEKQHL [R6D] is higher in protein stability index: 3.52 for the first, 4.3 for the second.

Going from RAQMIGNEYRKLHPVLHKEEKQHL [R6G] to RAQMIINEYRKLHPVLHKEEKQHL [R6I], the protein stability index falls from 3.96 to 1.89.

Going from RAQMIWNEYRKLHPVLHKEEKQHL [R6W] to RAQMIANEYRKLHPVLHKEEKQHL [R6A], the protein stability index rises from 1.77 to 3.07.

Going from RAQMIRNEIRKLHPVLHKEEKQHL [Y9I] to RAQMIRNEVRKLHPVLHKEEKQHL [Y9V], the protein stability index rises from 3.03 to 3.91.

RAQMIRNEGRKLHPVLHKEEKQHL [Y9G] and RAQMIRNEERKLHPVLHKEEKQHL [Y9E] are the same in protein stability index: 3.96 for the first, 3.96 for the second.

First: RAQMIRNERRKLHPVLHKEEKQHL [Y9R]
Second: RAQMIRNEHRKLHPVLHKEEKQHL [Y9H]
The protein stability index of the first is lower: 3.84 for the first, 4.12 for the second.

Going from RAQMIRNETRKLHPVLHKEEKQHL [Y9T] to RAQMIRNEPRKLHPVLHKEEKQHL [Y9P], the protein stability index falls from 4.08 to 3.93.

Going from RAQMIRNESRKLHPVLHKEEKQHL [Y9S] to RAQMIRNEFRKLHPVLHKEEKQHL [Y9F], the protein stability index falls from 3.46 to 3.35.

Compared with RAQMIRNEKRKLHPVLHKEEKQHL [Y9K], RAQMIRNEWRKLHPVLHKEEKQHL [Y9W] is lower in protein stability index: 3.65 for the first, 2.44 for the second.

RAQMIRNENRKLHPVLHKEEKQHL [Y9N] and RAQMIRNECRKLHPVLHKEEKQHL [Y9C] are the same in protein stability index: 3.79 for the first, 3.79 for the second.

Going from RAQMIRNELRKLHPVLHKEEKQHL [Y9L] to RAQMIRNEARKLHPVLHKEEKQHL [Y9A], the protein stability index rises from 3.25 to 4.04.

First: RAQMIRNEDRKLHPVLHKEEKQHL [Y9D]
Second: RAQMIRNEQRKLHPVLHKEEKQHL [Y9Q]
The protein stability index of the first is lower: 4.24 for the first, 4.31 for the second.

Compared with RAQMIRNEMRKLHPVLHKEEKQHL [Y9M], RAQMIRNEYRKQHPVLHKEEKQHL [L12Q] is lower in protein stability index: 3.97 for the first, 3.36 for the second.

Compared with RAQMIRNEYRKDHPVLHKEEKQHL [L12D], RAQMIRNEYRKEHPVLHKEEKQHL [L12E] is higher in protein stability index: 4.02 for the first, 4.06 for the second.

First: RAQMIRNEYRKIHPVLHKEEKQHL [L12I]
Second: RAQMIRNEYRKWHPVLHKEEKQHL [L12W]
The protein stability index of the first is higher: 3.07 for the first, 2.96 for the second.

First: RAQMIRNEYRKFHPVLHKEEKQHL [L12F]
Second: RAQMIRNEYRKMHPVLHKEEKQHL [L12M]
The protein stability index of the first is higher: 2.94 for the first, 2.86 for the second.

Going from RAQMIRNEYRKYHPVLHKEEKQHL [L12Y] to RAQMIRNEYRKNHPVLHKEEKQHL [L12N], the protein stability index rises from 3.75 to 4.16.

First: RAQMIRNEYRKKHPVLHKEEKQHL [L12K]
Second: RAQMIRNEYRKTHPVLHKEEKQHL [L12T]
The protein stability index of the first is lower: 3.7 for the first, 3.85 for the second.

Going from RAQMIRNEYRKCHPVLHKEEKQHL [L12C] to RAQMIRNEYRKSHPVLHKEEKQHL [L12S], the protein stability index rises from 3.03 to 4.43.

Compared with RAQMIRNEYRKPHPVLHKEEKQHL [L12P], RAQMIRNEYRKAHPVLHKEEKQHL [L12A] is lower in protein stability index: 3.96 for the first, 3.67 for the second.

Compared with RAQMIRNEYRKRHPVLHKEEKQHL [L12R], RAQMIRNEYRKHHPVLHKEEKQHL [L12H] is higher in protein stability index: 3.94 for the first, 4.27 for the second.

Going from RAQMIRNEYRKVHPVLHKEEKQHL [L12V] to RAQMIRNEYRKGHPVLHKEEKQHL [L12G], the protein stability index rises from 2.97 to 4.18.

— the supplement of paper PMC10567573
